From paper PMC4786922

System: S1 zinc finger array (six-finger designed ZF) (artificial (designed))
Assay: EMSA
Details: EMSA: ZBA buffer (composition not given), 0.05% NP-40, 0.1 mg/ml BSA, 10% glycerol, 35-75 pM target, 1.5 h at room temperature; pH not given

With “CCTCTTCGCTATTACGCCAGCCATGCGTAGGGAGCCGCGGAACGTTCGATCGTACTCGAGTCAGGGTG (double strand) [S1 target site EMSA probe]” the Kd was 5 nM.
